The DeepSol protein solubility set

Test: soluble on expression in E. coli; label from the status in PepcDB or PDB records

**Q.** For “MSLRKNESIRLIALGGVGEIGKNMYLAEVDEDLYVIDAGLMFPENEMLGIDIVIPDVSYLVQNKDRIRGIFLTHGHEDHIGALSYVLKKVSVPVYGTKLTLALAKAKMKEQDYRGKAELIEINSDSVLEFEHSSVSFFRTNHSIPDSVGICIHTSEGSIVYTGDFKFDQAAPELYKAEIGKMAGIGDNGVLCLLSDSTDAERPGYSTSEAVVQKAMAHAFYSAKGRVIAACFASDLIQIQHIFDAAEESGRKVAVAGKSIQKVYDLAVQLGYLAVKDDILIPLSELGSFRDHEVVILTAGSQGEPIEALQKMAKRTHRQVTIQEGDTVYLAAAPIRGGEVFIYKTMDMLYRAGATVITGKNSATASSHGSQEELKFMINLMKPKHFIPVHGEYKTLKSHGKLAAECGISQDSILIPEKGDVFEIKDGRIKQSGRVPAGNVLIDGIGVGDVGNIVLRDRRLLSQDGILIVVVTLNRHDKQIAAGPEIISRGFVYVRESEKLLVQAADMVKEIVHRGSQKESFDWAAVKQDMRDELNQFFYEKTKRRPMILPIIMEVKQEGHHHHHH”, which “soluble on expression in E. coli” value is on record?
**A.** Its value is “soluble”.

**Q.** With “MGSDKIHHHHHHMTTPLLEINDLVVSYQTAKGLVHAVNNVSLEVHPGQITAIVGESGSGKSTTAQAVIGLLADNAEVDSGRISFNGRSLVGLNAREWKNVRGTKIGLIPQDPNNSLNPVKTIGASVGEGLAIHKRGTAAERKKKVIELLERVGIDNPEVRYDQYPHELSGGMKQRALIAAAIALEPELIIADEPTSALDVTVQKIILDLLEDMQRELGMGILFITHDLAVAGDRADRIVVMQKGEVRESGYAASVLTDPQHEYSKKLLADAPSLTIGEIPTRVPAVDPEVAQAKGPLLVVDKFRKEHQRGKEGAFVAANDISFEVLPGTTHAIVGESGSGKTTLGRAIAMFNTPTSGSISVSGKDITNLSKAQQRELRQQIQLVYQNPYSSLDPRQTIGSTIAEPLRNFTKVSKQEADEKVAHYLELVALDPALATRRPRELSGGQRQRVAIARAMILEPELVVFDEAVSALDVTVQAQILRLLDDLQRELGLTYVFISHDLAVVREISDTVSVMSRGNQVELGKTAEVFNNPQTDFTRRLIDAIPGSRYRGGELNLGL” as the sequence, how does the “soluble on expression in E. coli” value read?
**A.** Its value is “not soluble”.

**Q.** With “RTNQAGLELIGNAEGCRRDPYMCPAGVWTDGIGNTHGVTPGVRKTDQQIAADWEKNILIAERCINQHFRGKDMPDNAFSAMTSAAFNMGCNSLRTYYSKARGMRVETSIHKWAQKGEWVNMCNHLPDFVNSNGVPLRGLKIRREKERQLCLTGLVNEHHHHHH” as the sequence, how does the “soluble on expression in E. coli” value read?
**A.** Its value is “soluble”.

**Q.** With “MGSDKIHHHHHHMPKERVDVLAYKQGLFNTREQAKRGVMAGLVVNVINGERYDKPGEKIDEATELKLKGDKLKYVSRGGLKLEKALKVFVISVDGQITLDIGASTGGFTDVMLQNGAQLVYAVDVGTNQLVWKLRQDERVCSMEQYNFRYAEPSDFERGQPTFASIDVSFISLNLILPALSKILTDGGQVVALIKPQFEAGREQIGKHGIVKDKSVHETVLETVTTFATNYGFTVKELDFSPIQGGHGNIEFLAYLEKSAQAQNQVLTKIKSIVEQAHKEFKKNEET” as the sequence, how does the “soluble on expression in E. coli” value read?
**A.** The value was “not soluble”.

**Q.** With “MGSDKIHHHHHHMLQPFLASADTFTQQHFANRHAILLKYPQSSAVTFAAAVWENSFHANALYFDVVGDVAWLPQLLEDLRQLADHHDRLQYSSYAAQSAVITQLQAKHFRAFRRTAMSDYRKVVATPEADVRSRSQLTSAQWHDVVQMSFANYVAAHADNPVTFNHATFEQQLAEAEDTQPSFLVENQQVQAYVFWFEDEPGALTSAWLGGQQFADIRRLLQTALFQVQARYSVVNGEFDDTDIHAWTVYQQLALPDPNPLISWQLLLDATRMP” as the sequence, how does the “soluble on expression in E. coli” value read?
**A.** The value was “not soluble”.

**Q.** Which “soluble on expression in E. coli” value does the source give for “MSLKTLAFDTSNKTLSLAILDDETLLADMTLNIQKKHSVSLMPAIDFLMTCTDLKPQDLERIVVAKGPGSYTGLRVAVATAKTLAYSLNIALVGISSLYALAASTCKQYPNTLVVPLIDARRQNAYVGYYRQGKSVMPQAHASLEVIIEQLVEEGQLIFVGETAPFAEKIQKKLPQAILLPTLPSAYECGLLGQSLAPENVDAFVPQYLKRVEAEENWLKDNEIKDDSHYVKRIEGHHHHHH” here?
**A.** Its value is “soluble”.

**Q.** With “MDFTQQLQACVTQANQALSRFIAPLPFQNTPVVEAMQYGALLGGKRLRPFLVYATGQMFGVSTATLDAPAAAVECIHAYSLIHDDLPAMDDDDLRRGLPTCHIKFGEANAILAGDALQTLAFAIISDAPMPEVADRDRIAMIAELANASGIAGMCGGQALDLAAEGQRITLDALERIHRHKTGALIRAAVRLGALSAGDKGRNTLPILDRYAESIGLAFQVQDDILDVVGDTATLGKRQGADQQLGKSTYPALLGLEQARNKARDLIEDARQSLHQLAAQSLDTSALEALANYIIQRDK” as the sequence, how does the “soluble on expression in E. coli” value read?
**A.** Its value is “not soluble”.

**Q.** For “MFSSSKLVNAVAQRLLDTIEQGRWVAGQMLPGQRELAEQMEISRPSLREAIMVLETLGVVRSLPGKGVMVLERSEPLREVAAPGEATMEDVLQLRYALEPFIVGIVAQSAGAAEISELRLLLLDLREAVEDGDPQALVEAYTAFHRRLVKLTSNPIFLSVSEQIGSALERSDNLVRRQPEYAEEILQEHDAILRAIRQHDSERASQAMRQHILNEGARLNIDLRLPQV”, which “soluble on expression in E. coli” value is on record?
**A.** The value was “not soluble”.

**Q.** Which “soluble on expression in E. coli” value does the source give for “MSQILNVTLITETFTPEINGVANTLGRLCDGLRLRGHRVELVRPRQSDEINSGAADDLMLCRGWPIPGYPGLQWGQSSMHKLLRRWQRRRPDVLYIATEGPLGLSALRAARRLGIAVISGFHTNFPQYTQQYGMGFITRLLTHYLRWFHNRSRVTLVPSVSQKVELERRGFERIELLSRGVDSQLFNPSRCSQALRESWGLQTGDIGVIHVGRLAPEKNLGLLKTGFEALKSSYPQRTIKLIVVGDGPQRSELEQQIPDAIFCGTLRGEVLATHYASADMFLFPSLTETFGNVVLEALASGLGVVAYDEAAAGQHIRHGHNGALAMPGDETAFVDAARWLLEDSENLRRVRLNARQHASRQGWTAIIDQFERQLRDACPSESSKTLRQTSDKTIRPVSSMPLDLEHHHHHH” here?
**A.** Its value is “not soluble”.

**Q.** With “MELTLQKYGSYEKFEQATGGSLLSKTRIWSHVRKYMVKEGCLGEIVVHLTEDLLSRASMTVVNGCPTLTINISTAREHWLEGMLRHEIGTHYFRGINNLQQPWNSWIGRKKHELKPNNPTEEGLASIHSVLFRKDPFLWRAALLYYTVYKASHMSFCELFKDIGKFVKDPNTRWDYCVRAKRGWTDTSEPGCFSKDQVYLDGVLQILRFRESIDFHLLTALGKVSYEDVDRLKELAVTENMRVPHFLHDHSRYMEHLERIMEVNELTDAELKNLI” as the sequence, how does the “soluble on expression in E. coli” value read?
**A.** The value was “not soluble”.

**Q.** Which “soluble on expression in E. coli” value does the source give for “ATDTLANEDCFRHESLVPNLDYERFRGSWIIAAGTSEALTQYKCWIDRFSYDDALVSKYTDSQGKNRTTIRGRTKFEGNKFTIDYNDKGKAFSAPYSVLATDYENYAIVEGCPAAANGHVIYVQLRMTLRRFHPKLGDKEMLQHYTLDQVNQNKKAIEEDLKHFNLKYEDLHSTCH” here?
**A.** The value was “soluble”.

**Q.** Which “soluble on expression in E. coli” value does the source give for “MSLDCSIKMLKDVPVKMRDGITIYTDIYLPITEEKVPTLIAWSPYGKSAGTAPRYKNLFNMLGMGNAWNSGLTKFEAPDPAYWCAHGYAVCNPDMRGIAHSEGNTTMIGSQEAEDGYDLIEWLAKQSWSNGKTALTGTSYLAFSQWYIAAEQPPHLTCINPTEGLADGYRDLAFIGGIPDPNFIERLQINHVSAKNSQREDLTKEMEAYPLADSAIWKDKVADPSKITIPAFVIASYSNTLHTMGTFRSWRSLGSKEKWLRIHDRQEWPYYYDENNVEELRRFFDYYLLGKENNWTDTPTVRYALIDFQGGNQTDLPSEVFPPTNSENKRYYMNGLLRTLQETPTSDDFKVSYTTENLPGRASFQMTFDKETHFVGYPKAKLFMEVDGYDDLDVFVWLQKLDKFGNVLSEFVVPNHGAALQDFTQEGASALRYKGAWGRLRASMRQLDSQVSTDEIPAYSFDKVEKLSSGEIVELDIILSPIGLTYKAGETLRVVVSSKDELGSVMPGTPGCTPNNKGMHILHTSKEHPSYIQLPIINKEGHHHHHH” here?
**A.** Its value is “soluble”.

**Q.** For “MAHHHHHHMKGCTLQNNFNHTAPFCGEWNSTILSGSLPPNSGGSSCVINLIKDEVHTVNGNTPRGITITSDTTKDGVFCTMDANGCPFAVDREIERGVNRMKAITKHGTCHMAYATSGGRTCDDSYDRSTRNYHDEEDEEWYEEDEEEGEDSPRIHIIDEHRDGRLLGNILCGMSRAGERISQGLDMLSPLEKRKSGRCAAIESVDYNNTRRRGGGGAETQKGLFQNYYNTGRGRWASRNHCRTNGWDESVSVESCFSHTYNQQWRGREPDYAMMEAHAALDGRSFCEGTYLSSTKLSERKKRVALSGSRVCRDAGKVIVQDNCPYDHKKRHKGRRQCQSPFGEEKIRANDPFDSPKNAITHIKKAGSAGSDDNDSCNPHSKSPGLTGSGSRCSQKETAGRSAEQRNGSGKAASPKTSPHKDELKEKESTVVKKD”, which “soluble on expression in E. coli” value is on record?
**A.** The value was “not soluble”.

**Q.** For “MSLDRVDWPHATFSTPVKRIFDTQTTLDFQSSLAIHRIKYHLHKYTTLISHCSDPDPHATASSIAMVNGLMGVLDKLAHLIDETPPLPGPRRYGNLACREWHHKLDERLPQWLQEMLPSEYHEVVPELQYYLGNSFGSSTRLDYGTGHELSFMATVAALDMLGMFPHHRGADVFLLFNKYYTIMRRLILTYTLEPAGSHGVWGLDDHFHLVYILGSSQWQLLDAQAPLQPREILDKSLVREYKDTNFYCQGINFINEVKMGPFEEHSPILYDIAVTVPRWSKVCKGLLKMYSVEVEKKFPVVQHFWFGTGFFPWVNIHHHHHH”, which “soluble on expression in E. coli” value is on record?
**A.** Its value is “soluble”.

**Q.** With “MSLTKRWFNVGKIVNTHGIKGEVRVISKTDFAEERYKPGNTLYLFMDGRNEPVEVTVNTHRLHKQFHLLQFKEGQNLNEVEELKNAIIKVPEEELGELNEGEFYFHEIIGCEVFTEEGELIGKVKEILTPGANDVWVIGRKGKKDALIPYIESVVKHIDVREKKIEIELMEGLIDEEGGSHHHHHH” as the sequence, how does the “soluble on expression in E. coli” value read?
**A.** Its value is “soluble”.

**Q.** Which “soluble on expression in E. coli” value does the source give for “MPKNKGKGGKNRRRGKNDSEGDKRELVFKEEGQEYGQVQRMLGNGRLDAYCFDGQKRLCHIRGKMRKKVWVNPGDIVLVSLRDFQDSKGDIILKYTPDEARALKSKGEIPETTKINE” here?
**A.** Its value is “soluble”.

**Q.** Which “soluble on expression in E. coli” value does the source give for “MTQANLSETLFKPRFKHPETSTLVRRFNHGAQPPVQSALDGKTIPHWYRMINRLMWIWRGIDPREILDVQARIVMSDAERTDDDLYDTVIGYRGGNWIYEWATQAMVWQQKACAEDDPQLSGRHWLHAATLYNIAAYPHLKGDDLAEQAQALSNRAYEEAAQRLPGTMRQMEFTVPGGAPITGFLHMPKGDGPFPTVLMCGGLDAMQTDYYSLYERYFAPRGIAMLTIDMPSVGFSSKWKLTQDSSLLHQHVLKALPNVPWVDHTRVAAFGFRFGANVAVRLAYLESPRLKAVACLGPVVHTLLSDFKCQQQVPEMYLDVLASRLGMHDASDEALRVELNRYSLKVQGLLGRRCPTPMLSGYWKNDPFSPEEDSRLITSSSADGKLLEIPFNPVYRNFDKGLQEITDWIEKRLC” here?
**A.** Its value is “soluble”.

**Q.** With “MGSDKIHHHHHHMFDAIGWDEIKNFEYMKQSIIAKIEHACASHEIPLHTHPKGQLILALHGYVTCEVSAKMWMVPTHSAIWIPAYKVHSNRASDNAKLCHLFIDSNMDGMPQNTCTLAISPLVKELMCELASRDQHYRSNSKTARLAQVLHDQLIDMPIQHLDFVLSKNMVIQAMSQQLISQPHDRKTLPQWAEQFALTERTLARLIKKETGMTFGKWRTQLHIITSLQALSDKQSVQQVSELLGYESVSAFITMFKKVMKTSPMKYMNELNAY” as the sequence, how does the “soluble on expression in E. coli” value read?
**A.** Its value is “not soluble”.

**Q.** With “MKKVLIANRGEIAVRIIRACRDLGIQTVAIYSEGDKDALHTQIADEAYCVGPTLSKDSYLNIPNILSIATSTGCDGVHPGYGFLAENADFAELCEACQLKFIGPSYQSIQKMGIKDVAKAEMIKANVPVVPGSDGLMKDVSEAKKIAKKIGYPVIIKATAGGGGKGIRVARDEKELETGFRMTEQEAQTAFGNGGLYMEKFIENFRHIEIQIVGDSYGNVIHLGERDCTIQRRMQKLVEEAPSPILDDETRREMGNAAVRAAKAVNYENAGTIEFIYDLNDNKFYFMEMNTRIQVEHPVTEMVTGIDLVKLQLQVAMGDVLPYKQEDIKLTGHAIEFRINAENPYKNFMPSPGKIEQYLAPGGYGVRIESACYTNYTIPPYYDSMVAKLIIHEPTRDEAIMAGIRALSEFVVLGIDTTIPFHIKLLNNDIFRSGKFNTNFLEQNSIMNDEG” as the sequence, how does the “soluble on expression in E. coli” value read?
**A.** The value was “soluble”.
